# Changes are numbered by the printed parent chain.
# B1: P74293 BAFF/B7RP1 bispecific molecule (bispecific antibody, human IgG2, kappa)
# heavy: EVQLVESGGGLVQPGGSLRLSCAASGFTFSSYWMSWVRQAPGKGLEWVAYIKQDGNEKYYVDSVKGRFTISRDNAKNSLYLQMNSLRAEDTAVYYCAREGILWFGDLPTFWGQGTLVTVSSASTKGPSVFPLAPCSRSTSESTAALGCLVKDYFPEPVTVSWNSGALTSGVHTFPAVLQSSGLYSLSSVVTVPSSNFGTQTYTCNVDHKPSNTKVDKTVERKCCVECPPCPAPPVAGPSVFLFPPKPKDTLMISRTPEVTCVVVDVSHEDPEVQFNWYVDGVEVHNAKTKPREEQFNSTFRVVSVLTVVHQDWLNGKEYKCKVSNKGLPAPIEKTISKTKGQPREPQVYTLPPSREEMTKNQVSLTCLVKGFYPSDIAVEWESNGQPENNYKTTPPMLDSDGSFFLYSKLTVDKSRWQQGNVFSCSVMHEALHNHYTQKSLSLSPGKGGGGGLPGCKWDLLIKQWVCDPLGSGSATGGSGSVASSGSGSATHLLPGCKWDLLIKQWVCDPL
# light: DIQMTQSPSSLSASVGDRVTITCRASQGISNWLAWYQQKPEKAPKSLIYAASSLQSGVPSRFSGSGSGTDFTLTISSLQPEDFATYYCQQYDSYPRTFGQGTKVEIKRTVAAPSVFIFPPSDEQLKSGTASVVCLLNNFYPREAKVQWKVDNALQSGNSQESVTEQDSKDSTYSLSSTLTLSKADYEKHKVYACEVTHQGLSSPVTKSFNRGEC
# notes: also called anti-BAFF/B7RP1 bispecific P74293
# B2: P74294 BAFF/B7RP1 bispecific molecule (bispecific antibody, human IgG2, kappa)
# heavy: B1 heavy with V482S
# light: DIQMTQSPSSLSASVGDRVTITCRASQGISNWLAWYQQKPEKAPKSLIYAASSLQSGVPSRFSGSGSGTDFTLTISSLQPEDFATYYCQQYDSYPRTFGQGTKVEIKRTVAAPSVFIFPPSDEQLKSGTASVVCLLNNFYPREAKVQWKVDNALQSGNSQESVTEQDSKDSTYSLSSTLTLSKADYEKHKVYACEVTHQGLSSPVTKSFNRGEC
# notes: variant of P71619 with a modified linker
# Legend:
# [1] = biological target: T1, cynomolgus monkey B7RP1 (cynomolgus monkey, UniProt A0A2K5TK64 19-256); test: KinExA (Kinetic Exclusion Assay)
# T1 sequence: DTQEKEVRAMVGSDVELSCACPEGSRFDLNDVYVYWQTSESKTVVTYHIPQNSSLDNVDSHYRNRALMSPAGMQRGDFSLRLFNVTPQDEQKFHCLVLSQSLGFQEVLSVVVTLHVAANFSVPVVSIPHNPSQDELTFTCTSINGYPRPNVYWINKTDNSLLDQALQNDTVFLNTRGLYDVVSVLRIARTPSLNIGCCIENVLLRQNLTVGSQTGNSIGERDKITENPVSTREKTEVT
# Method: (§1) The binding affinities of the heterodimeric bispecific antibodies P74293 and P74294 to BAFF and B7RP1 were measured by Kinetic Exclusion Assay (KinExA®; Sapidyne Instruments, Boise, Id.). […] In addition, both of these bispecifics have similar binding affinities to cynomolgus monkey BAFF compared to human BAFF and to cynomolgus monkey B7RP1 compared to human B7RP1.
# [2] = biological target: T2, human B7-related protein 1 (B7RP1) (human, UniProt O75144 19-256, limits assumed); test: KinExA (Kinetic Exclusion Assay)
# T2 construct: also called human B7RP1; ICOSLG
# T2 sequence (looked up): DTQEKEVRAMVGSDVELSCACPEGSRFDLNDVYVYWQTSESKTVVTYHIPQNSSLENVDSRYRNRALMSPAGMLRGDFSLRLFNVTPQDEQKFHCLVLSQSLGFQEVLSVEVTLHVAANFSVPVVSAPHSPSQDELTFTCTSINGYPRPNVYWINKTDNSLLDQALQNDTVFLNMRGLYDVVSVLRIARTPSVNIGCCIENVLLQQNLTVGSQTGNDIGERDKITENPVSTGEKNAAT
# Method: as §1
# [3] = biological target: cynomolgus monkey BAFF (cynomolgus monkey, UniProt A0A2K5V2X4 134-285); test: KinExA (Kinetic Exclusion Assay)
# Method: as §1
# [4] = biological target: T3, human B-cell activating factor (BAFF) (human, UniProt Q9Y275 134-285); test: KinExA (Kinetic Exclusion Assay)
# T3 construct: Used in KinExA and, as 'human BAFF protein' at 50 ng/ml, in the human B cell proliferation assay; also called human BAFF; TNFSF13B
# Method: as §1
# [5] = biological target: B7RP1 used in the cynomolgus monkey T cell proliferation assay; test: cell-based or functional assay
# [6] = biological target: T4, human B7RP1-Fc fusion protein (human, UniProt O75144 19-256, limits assumed); test: cell-based or functional assay
# T4 sequence (looked up): T2 sequence (looked up)
# [7] = biological target: T3, human B-cell activating factor (BAFF); test: cell-based or functional assay
# [8] = biological target: BAFF used in the cynomolgus monkey B cell proliferation assay; test: cell-based or functional assay
# T3 sequence (Q9Y275 134-285 limits assumed): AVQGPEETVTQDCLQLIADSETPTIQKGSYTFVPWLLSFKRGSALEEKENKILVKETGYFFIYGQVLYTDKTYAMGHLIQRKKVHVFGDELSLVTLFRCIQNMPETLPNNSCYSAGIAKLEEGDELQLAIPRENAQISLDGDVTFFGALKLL
Binder,Kd [1],Kd [2],Kd [3],Kd [4],IC50 (nM) for inhibition of B7RP1-mediated cynomolgus monkey T cell proliferation [5],IC50 (nM) for inhibition of B7RP1-mediated human T cell proliferation [6],IC50 (nM) for inhibition of BAFF-mediated human B cell proliferation [7],IC50 (nM) for inhibition of BAFF-mediated cynomolgus monkey B cell proliferation [8]
B1,0.0494 nM,0.038 nM,0.0223 nM,0.029 nM,0.29 nM,1.36 nM,0.86 nM,1.6 nM
B2,0.0452 nM,0.041 nM,0.0174 nM,0.037 nM,,0.98 nM,0.96 nM,1.8 nM

# From patent US20210206881A1 (Amgen, published 2021)
